This note sets out measurements from patent publication US12433934B2, “Methods and compositions for preventing and treating atherosclerosis and related diseases” (Shanghai Puyou Biomedical Co., Ltd., priority 2018, dated 2025).

Assay [1] has as its system ApoE−/− mice. As to the kind of experiment: Atherosclerotic plaques of the aorta (en face oil red O staining) in high-fat diet ApoE−/− mice. The format is in vivo. To be noted: 13 weeks. As for the experimental part:
FIGS. 15-16. The sDSS1 protein inhibits the formation of atherosclerotic plaques in ApoE−/− mice. […] At the end of the injection, the aorta was dissected for oil red O staining, and the area of plaques was calculated.
Experimental animals: ApoE−/− mice, 8-week-old, male, were purchased from Nanjing Biomedical Research Institute of Nanjing University. The experimental animals were housed in an animal room for one week before the experiment.
Experimental method: ApoE−/− mice were fed with high-fat diet containing 0.25% cholesterol starting from the age of 9 weeks. From the 10th week of high-fat diet feeding, the mice were randomly divided into three groups according to the total cholesterol level, with 10 mice in each group. […] At the 22nd week of high-fat diet feeding, that is, the 13th week of administration, the animals were executed and dissected, and the whole aorta was separated. The separated aorta was stained with en face oil red O to evaluate the formation of atherosclerotic plaques.

Assay [2] concerns LDL. As to the kind of experiment: Co-incubation with LDL, SDS-PAGE separation, Coomassie brilliant blue staining. The assay is classed as binding. The following applies: 12 h. As for the experimental part:
(§1) Experimental materials: sDSS1 protein, sDSS1 mutant protein 1 (sDSS1-M1, SEQ ID NO: 15), sDSS1 mutant protein 2 (sDSS1-M2, SEQ ID NO: 16), oxidized low density lipoprotein (oxLDL) (Solarbio, Article No.: H7980); low density lipoprotein (LDL) (Solarbio, Article No.: H7960).
(§2) Experimental method: 2 μg of oxLDL or LDL was mixed with 6 μg of sDSS1 protein or 10 μg of sDSS1 protein in a 1.5 ml EP tube in the presence of 20 mM sodium acetate/acetic acid buffer (pH 4.5) or 20 mM phosphate buffer (pH 7.2) respectively, and incubated at 37° C. for 12 h. A loading buffer was added in the incubated product and evenly mixed, and the obtained mixture was denatured at 100° C. for 10 min to prepare a loading sample. The resulting sample was subjected to electrophoretic separation via polyacrylamide gel electrophoresis (SDS-PAGE). After separation, the SDS-PAGE gel was stained with Coomassie brilliant blue to display protein strips. The sDSS1-M1 or sDSS1-M2 protein was respectively mixed and incubated with oxLDL, and treated in the same way. 15 μL of the sample was used for SDS-PAGE electrophoresis separation.

Assay [3] addresses T1, oxLDL (Homo sapiens, UniProt P04114).
T1 construct: purchased Solarbio H7980
As to the kind of experiment: Co-incubation with oxLDL, SDS-PAGE separation, Coomassie brilliant blue staining. The assay is classed as binding. The protocol: as §1, §2

Assay [4] has as its system ApoE−/− mice. As to the kind of experiment: Plasma oxLDL and LDL levels (ELISA) in ApoE−/− mice after 7 days of administration. The assay is classed as in vivo. The text has this:
ApoE−/− mice were divided into two groups, the control group and the sDSS1 protein administration group. […] At the end of the administration, the plasma levels of oxLDL and LDL in mice were detected.
Experimental animal: ApoE−/− mice, 8-10 weeks old, male, were purchased from Nanjing Biomedical Research Institute of Nanjing University. The animals were housed in an animal room for one week before the experiment.
Experimental materials: sDSS1 protein, oxLDL ELISA kit (Wuhan Elabscience Biotechnology Co., Ltd., Article No.: E-EL-M0066c), LDL ELISA kit (Wuhan Elabscience Biotechnology Co., Ltd., product No.: E-EL-M1363c)
Experimental method: the ApoE−/− mice were randomly divided into two groups, a control group and a sDSS1 protein group. For 7 days, 200 μl of normal saline was intraperitoneally injected in control group once a day, and 10 mg/kg of the sDSS1 protein was intraperitoneally injected in sDSS1 protein group once a day. After 7 days of administration, the bloods of mice were collected, and plasma was separated with EDTA-Na as an anticoagulant. The plasma oxLDL level was measured by using the oxLDL ELISA kit, and the plasma LDL level was measured by the LDL ELISA kit.
100 μl of oxLDL standards or samples were added in each well, and incubated for 90 min at 37° C.; the liquid in the well was discarded, 100 μl of biotinylated oxLDL antibody working liquid was added, and incubated at 37° C. for 60 min; washing 3 times; 100 μl of enzyme binding working solution was added, and incubated at 37° C. for 30 min; washing 5 times; 90 μl of substrate solution was added, and incubated at 37° C. for 15 min; 50 μl of termination solution was added, and the OD value was immediately measured at 450 nm wavelength; a standard curve was established with standard products, and the oxLDL level of each sample was calculated according to the standard curve.
100 μl of LDL standards or samples were added into each well, and incubated for 90 min at 37° C.; the liquid in the well was discarded, 100 μl of biotinylated LDL antibody working liquid was added, and incubated at 37° C. for 60 min; washing 3 times; 100 μl of enzyme binding working liquid was added, and incubated at 37° C. for 30 min; washing 5 times; 90 μl of substrate solution was added, and incubated at 37° C. for 15 min; 50 μl of termination solution was added, and the OD value was immediately measured at 450 nm wavelength; a standard curve was established by using standard products, and the LDL level of each sample was calculated according to the standard curve. The oxLDL/LDL ratio=oxLDL concentration (ng/ml)÷LDL concentration (ng/ml) 5.2 Experimental Results

Entries after “also recorded” stand apart in the source; their conditions may differ.

T1 sequence (P04114 28-4563): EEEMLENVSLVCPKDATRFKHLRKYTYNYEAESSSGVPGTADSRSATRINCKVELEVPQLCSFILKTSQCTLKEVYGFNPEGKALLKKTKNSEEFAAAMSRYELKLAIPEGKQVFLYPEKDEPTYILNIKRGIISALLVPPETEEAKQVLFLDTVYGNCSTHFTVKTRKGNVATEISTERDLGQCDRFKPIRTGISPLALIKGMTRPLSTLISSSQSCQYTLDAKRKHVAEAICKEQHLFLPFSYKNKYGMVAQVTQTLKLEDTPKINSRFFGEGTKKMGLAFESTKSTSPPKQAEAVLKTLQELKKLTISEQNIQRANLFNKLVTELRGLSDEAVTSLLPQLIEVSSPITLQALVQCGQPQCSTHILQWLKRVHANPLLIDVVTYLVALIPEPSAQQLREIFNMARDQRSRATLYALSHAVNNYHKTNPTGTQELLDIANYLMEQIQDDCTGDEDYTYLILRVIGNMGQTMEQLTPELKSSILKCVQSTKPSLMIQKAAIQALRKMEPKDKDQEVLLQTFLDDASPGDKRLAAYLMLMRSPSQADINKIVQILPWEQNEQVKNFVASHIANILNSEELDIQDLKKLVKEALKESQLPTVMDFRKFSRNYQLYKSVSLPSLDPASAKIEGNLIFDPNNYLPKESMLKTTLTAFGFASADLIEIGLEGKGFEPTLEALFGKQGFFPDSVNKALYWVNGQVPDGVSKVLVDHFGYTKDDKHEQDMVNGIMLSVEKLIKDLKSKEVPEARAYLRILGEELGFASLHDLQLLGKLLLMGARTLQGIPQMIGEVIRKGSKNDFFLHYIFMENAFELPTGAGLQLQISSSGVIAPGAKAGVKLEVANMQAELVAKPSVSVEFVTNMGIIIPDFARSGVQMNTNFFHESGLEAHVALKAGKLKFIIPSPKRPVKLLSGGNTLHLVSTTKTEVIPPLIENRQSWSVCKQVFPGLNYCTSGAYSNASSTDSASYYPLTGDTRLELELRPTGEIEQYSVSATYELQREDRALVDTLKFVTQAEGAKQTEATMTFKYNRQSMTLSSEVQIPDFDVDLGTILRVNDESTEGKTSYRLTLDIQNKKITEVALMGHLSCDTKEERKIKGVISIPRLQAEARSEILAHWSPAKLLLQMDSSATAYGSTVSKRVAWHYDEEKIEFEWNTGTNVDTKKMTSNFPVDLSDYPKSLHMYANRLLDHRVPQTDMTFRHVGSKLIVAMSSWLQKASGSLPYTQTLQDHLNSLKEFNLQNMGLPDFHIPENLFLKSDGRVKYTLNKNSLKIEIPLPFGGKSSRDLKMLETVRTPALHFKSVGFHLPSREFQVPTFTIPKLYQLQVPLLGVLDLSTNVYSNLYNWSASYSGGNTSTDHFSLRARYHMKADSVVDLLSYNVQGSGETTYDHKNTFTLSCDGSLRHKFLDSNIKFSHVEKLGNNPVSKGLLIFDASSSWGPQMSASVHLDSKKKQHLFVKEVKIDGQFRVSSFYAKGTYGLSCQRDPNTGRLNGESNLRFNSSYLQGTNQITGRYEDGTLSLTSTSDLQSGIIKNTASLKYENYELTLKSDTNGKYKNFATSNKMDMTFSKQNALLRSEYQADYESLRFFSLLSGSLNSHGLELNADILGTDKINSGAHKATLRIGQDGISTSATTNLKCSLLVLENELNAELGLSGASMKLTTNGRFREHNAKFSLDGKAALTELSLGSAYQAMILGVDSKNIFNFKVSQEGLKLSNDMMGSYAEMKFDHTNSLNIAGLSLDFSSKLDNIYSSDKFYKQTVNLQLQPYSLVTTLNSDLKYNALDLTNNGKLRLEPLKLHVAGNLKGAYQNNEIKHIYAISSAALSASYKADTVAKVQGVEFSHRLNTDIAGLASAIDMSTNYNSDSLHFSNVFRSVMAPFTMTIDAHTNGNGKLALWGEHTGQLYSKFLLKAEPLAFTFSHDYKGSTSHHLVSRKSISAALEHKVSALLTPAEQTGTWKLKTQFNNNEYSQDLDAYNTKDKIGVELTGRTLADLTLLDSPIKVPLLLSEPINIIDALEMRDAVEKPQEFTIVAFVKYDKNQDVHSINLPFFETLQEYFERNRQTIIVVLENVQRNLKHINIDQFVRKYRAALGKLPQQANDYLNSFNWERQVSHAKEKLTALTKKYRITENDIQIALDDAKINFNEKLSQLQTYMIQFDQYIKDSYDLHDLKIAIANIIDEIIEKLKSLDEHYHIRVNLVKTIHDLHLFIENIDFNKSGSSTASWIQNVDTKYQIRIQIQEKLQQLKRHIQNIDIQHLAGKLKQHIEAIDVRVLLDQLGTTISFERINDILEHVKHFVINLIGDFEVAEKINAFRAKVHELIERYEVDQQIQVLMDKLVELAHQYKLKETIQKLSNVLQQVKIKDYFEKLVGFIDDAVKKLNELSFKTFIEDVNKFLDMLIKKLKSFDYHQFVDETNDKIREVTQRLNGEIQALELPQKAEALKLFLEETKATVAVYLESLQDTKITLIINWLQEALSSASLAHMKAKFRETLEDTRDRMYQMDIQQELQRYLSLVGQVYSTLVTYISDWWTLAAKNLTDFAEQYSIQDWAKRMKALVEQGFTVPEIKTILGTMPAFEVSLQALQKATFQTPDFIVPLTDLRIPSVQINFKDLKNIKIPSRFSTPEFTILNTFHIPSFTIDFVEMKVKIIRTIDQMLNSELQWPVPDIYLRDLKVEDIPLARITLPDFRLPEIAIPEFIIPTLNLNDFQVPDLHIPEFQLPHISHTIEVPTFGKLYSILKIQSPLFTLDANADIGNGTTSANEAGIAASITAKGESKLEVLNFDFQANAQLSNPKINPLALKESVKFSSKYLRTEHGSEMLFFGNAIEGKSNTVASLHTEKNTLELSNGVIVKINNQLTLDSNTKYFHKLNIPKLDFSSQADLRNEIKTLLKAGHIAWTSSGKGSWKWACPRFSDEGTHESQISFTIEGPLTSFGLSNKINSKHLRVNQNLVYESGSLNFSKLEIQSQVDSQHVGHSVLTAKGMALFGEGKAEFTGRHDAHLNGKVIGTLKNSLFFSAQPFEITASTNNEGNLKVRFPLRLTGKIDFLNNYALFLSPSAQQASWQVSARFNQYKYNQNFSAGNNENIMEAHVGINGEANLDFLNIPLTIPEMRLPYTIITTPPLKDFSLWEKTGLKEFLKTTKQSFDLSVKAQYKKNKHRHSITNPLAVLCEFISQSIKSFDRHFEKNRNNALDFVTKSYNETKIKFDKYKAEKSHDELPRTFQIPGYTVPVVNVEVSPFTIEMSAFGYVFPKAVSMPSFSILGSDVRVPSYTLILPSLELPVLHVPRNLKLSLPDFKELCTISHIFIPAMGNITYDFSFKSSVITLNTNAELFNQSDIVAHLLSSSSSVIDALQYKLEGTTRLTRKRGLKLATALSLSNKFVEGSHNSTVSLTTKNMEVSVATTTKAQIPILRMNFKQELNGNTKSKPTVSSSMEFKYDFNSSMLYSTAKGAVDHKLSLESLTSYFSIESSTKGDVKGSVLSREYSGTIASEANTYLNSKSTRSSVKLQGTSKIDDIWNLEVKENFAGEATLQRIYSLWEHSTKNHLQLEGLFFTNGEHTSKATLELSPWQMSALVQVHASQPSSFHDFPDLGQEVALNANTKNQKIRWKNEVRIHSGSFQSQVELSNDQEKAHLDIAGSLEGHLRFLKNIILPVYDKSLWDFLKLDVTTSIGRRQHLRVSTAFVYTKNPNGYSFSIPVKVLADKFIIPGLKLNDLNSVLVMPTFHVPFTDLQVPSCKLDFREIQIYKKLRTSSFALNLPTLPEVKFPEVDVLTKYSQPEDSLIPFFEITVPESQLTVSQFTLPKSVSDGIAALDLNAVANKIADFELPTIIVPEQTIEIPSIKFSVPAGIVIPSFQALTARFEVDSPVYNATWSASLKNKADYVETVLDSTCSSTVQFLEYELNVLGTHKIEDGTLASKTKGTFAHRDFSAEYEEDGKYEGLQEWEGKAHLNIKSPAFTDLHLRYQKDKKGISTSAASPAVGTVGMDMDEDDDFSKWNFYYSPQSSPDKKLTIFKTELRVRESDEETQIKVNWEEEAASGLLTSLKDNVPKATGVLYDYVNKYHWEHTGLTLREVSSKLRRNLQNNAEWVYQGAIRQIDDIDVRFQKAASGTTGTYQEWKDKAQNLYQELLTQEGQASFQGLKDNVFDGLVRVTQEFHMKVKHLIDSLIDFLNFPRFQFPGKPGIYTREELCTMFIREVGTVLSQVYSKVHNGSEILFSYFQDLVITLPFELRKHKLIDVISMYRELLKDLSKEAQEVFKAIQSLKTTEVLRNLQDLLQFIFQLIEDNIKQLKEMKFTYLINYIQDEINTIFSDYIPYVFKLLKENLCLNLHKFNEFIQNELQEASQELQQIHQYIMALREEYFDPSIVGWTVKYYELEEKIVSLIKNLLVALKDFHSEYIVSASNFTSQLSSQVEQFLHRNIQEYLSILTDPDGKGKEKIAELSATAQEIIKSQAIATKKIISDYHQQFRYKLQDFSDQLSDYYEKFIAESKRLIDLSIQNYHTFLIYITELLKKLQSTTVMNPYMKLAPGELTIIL

B1: sDSS1 protein: sDSS1 protein produced by the company itself, purity more than 95%; sequence of human sDSS1 protein is SEQ ID NO:1 (protein, listed as Homo sapiens)
chain: MSEKKQPVDLGLLEEDDEFEEFPAEDWAGLDEDEDAHVWEDNWDDDNVEDDFSNQLRATVLLMILVCETPYGCYVLHQKGRMCSAFLCC
As to B1, the “Area of atherosclerotic plaques (en face oil red O) vs model group” value in assay [1] (sDSS1 3 mg/kg intraperitoneal once a day, high-fat diet) is “significantly reduced”. Further, in assay [1] (sDSS1 3 mg/kg intraperitoneal once a day, **P<0.01), the “Plaque area ratio (oil red O stained area / total aortic area) vs model group” value is listed as “significantly smaller”. For the same molecule, the “Plaque area ratio, sDSS1 protein group vs positive drug group” value in assay [1] (sDSS1 3 mg/kg vs ATV 40 mg/kg) was “no significant difference”. Besides, the “Effect on plaque area in certain areas of the aorta vs positive drug” value in assay [1] (sDSS1 3 mpk vs ATV 40 mpk) is reported as “even better”. Also, the “Interaction with LDL (complex on SDS-PAGE gel)” value in assay [2] (phosphate buffer pH 7.2, 37° C.) is given as “interacted with the sDSS1 protein; also recorded: resulted in interactions”; in assay [2] (sodium acetate/acetic acid buffer pH 4.5, 37° C.), “interacted with the sDSS1 protein; also recorded: resulted in interactions”. Moreover, the “Interaction with oxLDL (complex on SDS-PAGE gel)” value was “interacted with the sDSS1 protein; also recorded: resulted in interactions” in assay [3] (phosphate buffer pH 7.2) and “interacted with the sDSS1 protein; also recorded: resulted in interactions” in assay [3] (sodium acetate/acetic acid buffer pH 4.5, 37° C., 12 h). Further, the entries for the “Plasma LDL level vs control group” value in assay [4] (sDSS1 10 mg/kg (10 mpk) intraperitoneal once a day) and in assay [4] (sDSS1 30 mg/kg (30 mpk) intraperitoneal once a day) were “no significant difference; also recorded: did not cause significant changes” and “did not cause significant changes”, respectively. Also, the “Plasma oxLDL/LDL ratio vs control group” value in assay [4] (sDSS1 10 mg/kg intraperitoneal once a day) and in assay [4] (sDSS1 high dose (30 mpk) intraperitoneal once a day) was “significantly lower” in each case. The “Plasma oxLDL level vs control group” value in assay [4] (sDSS1 30 mg/kg (30 mpk, high dose) intraperitoneal once a day) is “significantly reduced”.
